The target of experiment [1] is TRAIL receptor DR5 on SK-Hep1 human hepatoma cells (human) (UniProt O14763). Kind of experiment: cell-based or functional assay.
Experiment [2] addresses T1, murine TWEAK, full length, on transiently transfected CHO cells (murine, UniProt O54907 1-249).
T1 construct: whole, on cells; also called cell surface TWEAK
T1 sequence (looked up): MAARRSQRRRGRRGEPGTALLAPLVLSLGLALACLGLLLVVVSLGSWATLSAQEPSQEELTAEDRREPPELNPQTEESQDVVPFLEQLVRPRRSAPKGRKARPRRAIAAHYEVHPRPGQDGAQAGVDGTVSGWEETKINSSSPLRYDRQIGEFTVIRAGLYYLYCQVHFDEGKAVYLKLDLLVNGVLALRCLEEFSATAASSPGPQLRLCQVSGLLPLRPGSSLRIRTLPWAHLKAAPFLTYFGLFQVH
Kind of experiment: flow cytometry on CHO cells transiently transfected with murine TWEAK, 4 C, detected with anti-mouse TRAIL Ab. The procedure: B) CHO cells were transiently transfected with a murine TWEAK cDNA expression construct, and after 48 h, were incubated at 4° C. with purified Fn14-TRAIL or rTRAIL in sodium azide-containing buffer. The presence of membrane-bound TWEAK on transfectants, and the binding of Fn14-TRAIL to them, was verified by flow cytometry, using anti-mouse TWEAK Ab (B.1) and anti-mouse TRAIL Ab (B.2-5) as detecting Ab, respectively. (B.1) TWEAK is expressed on transfected CHO cells, as detected using anti-TWEAK Ab (solid black line) versus isotype control (filled histogram); (B.2) TRAIL is not detectable on CHO cells, when analyzed using anti-TRAIL Ab (solid black line) versus isotype control (filled histogram). (B.3 and B.4) TRAIL epitopes are enhanced when Fn14-TRAIL is added to TWEAK-expressing, as opposed to TWEAK-negative, CHO cells. Anti-TRAIL Ab and isotype control are represented by solid black line and filled histogram, respectively. […] Isotype control is shown as filled histogram.
To validate the identity of expressed Fn14-TRAIL, its ability to bind to Fn14's ligand, TWEAK, was assessed. To this end, CHO cells were transiently transfected with a murine TWEAK cDNA expression construct (in the pcDNA3 vector), and after 48 h, transfectants were incubated at 4° C. with purified Fn14-TRAIL or soluble TRAIL.
(In flow cytometry, cells or beads pass a laser one at a time.)

Sequence of TRAIL receptor DR5 on SK-Hep1 human hepatoma cells (human) (O14763 56-440): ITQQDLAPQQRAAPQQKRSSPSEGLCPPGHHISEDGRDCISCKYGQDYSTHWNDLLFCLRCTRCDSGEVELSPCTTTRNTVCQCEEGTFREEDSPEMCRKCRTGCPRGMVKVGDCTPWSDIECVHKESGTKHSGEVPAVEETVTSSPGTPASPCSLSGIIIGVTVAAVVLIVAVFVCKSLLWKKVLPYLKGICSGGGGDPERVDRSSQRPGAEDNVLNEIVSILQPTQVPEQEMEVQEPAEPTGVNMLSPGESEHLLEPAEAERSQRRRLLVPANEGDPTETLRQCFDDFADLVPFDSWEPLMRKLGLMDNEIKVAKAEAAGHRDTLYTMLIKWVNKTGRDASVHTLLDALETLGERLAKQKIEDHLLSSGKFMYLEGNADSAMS

As for “purified untagged human Fn14-TRAIL protein”, in experiment [1], the killing effect on SK-Hep1 cells (24 h, trypan blue live/dead count) stood at 0.04 nM.

B1: soluble TRAIL (aa 118-291 of murine TRAIL) (ligand, UniProt P50592 118-291, looked up)
chain: PRGGRPQKVAAHITGITRRSNSALIPISKDGKTLGQKIESWESSRKGHSFLNHVLFRNGELVIEQEGLYYIYSQTYFRFQEAEDASKMVSKDKVRTKQLVQYIYKYTSYPDPIVLMKSARNSCWSRDAEYGLYSIYQGGLFELKKNDRIFVSVTNEHLMDLDQEASFFGAFLIN
notes: range 118-291
Consider B1, for which the binding result in experiment [2] is “no binding”.
